# Assay results taken from US20100215651A1 (GLENMARK PHARMACEUTICALS S A, published 2010).
# T1: human CD19 (human, UniProt P15391 20-556)
# T1 construct: CD19 as expressed on Raji, NALM-6 and SU-DHL-6 cells; also called CD19 antigen; B-cell surface antigen B4
# T1 sequence: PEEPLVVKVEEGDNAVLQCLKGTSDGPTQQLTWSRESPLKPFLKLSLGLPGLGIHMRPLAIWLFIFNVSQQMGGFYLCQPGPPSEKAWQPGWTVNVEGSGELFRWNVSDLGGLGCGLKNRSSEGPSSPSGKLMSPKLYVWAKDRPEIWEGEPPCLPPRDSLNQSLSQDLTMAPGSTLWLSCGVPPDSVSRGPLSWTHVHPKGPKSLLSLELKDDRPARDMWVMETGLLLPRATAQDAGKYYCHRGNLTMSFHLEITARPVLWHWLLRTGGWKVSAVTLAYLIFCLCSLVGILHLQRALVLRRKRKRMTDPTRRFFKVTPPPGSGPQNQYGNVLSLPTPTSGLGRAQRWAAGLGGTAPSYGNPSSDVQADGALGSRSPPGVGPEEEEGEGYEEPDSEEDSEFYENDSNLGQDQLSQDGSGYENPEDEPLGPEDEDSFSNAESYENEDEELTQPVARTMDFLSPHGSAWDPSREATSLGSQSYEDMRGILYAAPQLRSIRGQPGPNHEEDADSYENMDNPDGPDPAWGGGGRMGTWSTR
# Molecular target: T1, human CD19
# Assay: flow cytometry, Raji cells, MPF vs chimeric FMC63
# Experimental: Binding of the CD19 humanized monoclonal antibodies by flow cytometry to Raji tumor cells (human Burkitt lymphoma, DSMZ ACC319), NALM-6 (human B cell precursor leukemia, DSMZ ACC128) and SU-DHL-6 (human B cell lymphoma, DSMZ ACC572) (all cell lines from DSMZ Braunschweig, Deutschland) was assessed. Cells were incubated with serial dilutions of each humanized monoclonal antibody. An irrelevant human IgG1 was used as a negative control. The cells were washed and detected by a phycoerythrin-labeled (PE) anti-human secondary antibody (eBioscience, CA, USA) and analyzed by flow cytometry. […] From MFI versus antibody concentration curves, Mid-Point Fluorescence (MPF) value for each anti-CD19 humanized antibody was calculated using the software GraphPad Prism 5 (CA, USA).
Binder,relative MPF (% of chimeric FMC63) [%],binding result
"VH16/VL43-F71Y (antibody, human IgG1, V domains shown, substitutions in Kabat numbering) VH: QVQLVQSGGGVVQPGRSLRLSCAASGVSLPDYGVSWVRQAPGKGLEWVAVIWGSETTYYNSALKSRFTISRDNSKNTLYLQMNSLRAEDTAVYYCARHYYYGGSYAMDYWGQGTLVTVSS VL: DIVMTQTPSSLSASVGDRVTITCRASQDISKYLNWYQQKPGKAPKLLIYHTSRLHSGVPSRFSGSGSGTDYTLTISSLQPEDFATYYCQQGNTLPYTFGPGTKVDIKR",11.3,
"VH16 Y32F/R94K/VL43 V3Q/T7S/P44I/N92A (antibody, human IgG1, name in Kabat numbering, V domains shown, Full-length human IgG1/kappa; substitutions in Kabat numbering) VH: QVQLVQSGGGVVQPGRSLRLSCAASGVSLPDFGVSWVRQAPGKGLEWVAVIWGSETTYYNSALKSRFTISRDNSKNTLYLQMNSLRAEDTAVYYCAKHYYYGGSYAMDYWGQGTLVTVSS VL: DIQMTQSPSSLSASVGDRVTITCRASQDISKYLNWYQQKPGKAIKLLIYHTSRLHSGVPSRFSGSGSGTDFTLTISSLQPEDFATYYCQQGATLPYTFGPGTKVDIKR",133,
"VH16-R94K/VL43-Y87F (antibody, human IgG1, V domains shown, Full-length human IgG1/kappa; substitutions in Kabat numbering) VH: QVQLVQSGGGVVQPGRSLRLSCAASGVSLPDYGVSWVRQAPGKGLEWVAVIWGSETTYYNSALKSRFTISRDNSKNTLYLQMNSLRAEDTAVYYCAKHYYYGGSYAMDYWGQGTLVTVSS VL: DIVMTQTPSSLSASVGDRVTITCRASQDISKYLNWYQQKPGKAPKLLIYHTSRLHSGVPSRFSGSGSGTDFTLTISSLQPEDFATYFCQQGNTLPYTFGPGTKVDIKR",31.8,
"VH16 R94K VL43 Y32F (antibody, human IgG1, V domains shown, Full-length human IgG1/kappa; substitutions in Kabat numbering) VH: QVQLVQSGGGVVQPGRSLRLSCAASGVSLPDYGVSWVRQAPGKGLEWVAVIWGSETTYYNSALKSRFTISRDNSKNTLYLQMNSLRAEDTAVYYCAKHYYYGGSYAMDYWGQGTLVTVSS VL: DIVMTQTPSSLSASVGDRVTITCRASQDISKFLNWYQQKPGKAPKLLIYHTSRLHSGVPSRFSGSGSGTDFTLTISSLQPEDFATYYCQQGNTLPYTFGPGTKVDIKR",39.5,
"VH16/VL43-Y87F (antibody, human IgG1, V domains shown, substitutions in Kabat numbering) VH: QVQLVQSGGGVVQPGRSLRLSCAASGVSLPDYGVSWVRQAPGKGLEWVAVIWGSETTYYNSALKSRFTISRDNSKNTLYLQMNSLRAEDTAVYYCARHYYYGGSYAMDYWGQGTLVTVSS VL: DIVMTQTPSSLSASVGDRVTITCRASQDISKYLNWYQQKPGKAPKLLIYHTSRLHSGVPSRFSGSGSGTDFTLTISSLQPEDFATYFCQQGNTLPYTFGPGTKVDIKR",10,
"VH16 R94K/VL43 V3Q/T7S/N92A (antibody, human IgG1, Full-length human IgG1/kappa; substitutions in Kabat numbering) heavy: not shown VL: DIQMTQSPSSLSASVGDRVTITCRASQDISKYLNWYQQKPGKAPKLLIYHTSRLHSGVPSRFSGSGSGTDFTLTISSLQPEDFATYYCQQGATLPYTFGPGTKVDIKRTVAA",18.2,
"VH16 Y32F/R94K/VL43 V3Q/T7S/Y32F/P44I/N92A (antibody, human IgG1, name in Kabat numbering, V domains shown, Full-length human IgG1/kappa; substitutions in Kabat numbering) VH: QVQLVQSGGGVVQPGRSLRLSCAASGVSLPDFGVSWVRQAPGKGLEWVAVIWGSETTYYNSALKSRFTISRDNSKNTLYLQMNSLRAEDTAVYYCAKHYYYGGSYAMDYWGQGTLVTVSS VL: DIQMTQSPSSLSASVGDRVTITCRASQDISKFLNWYQQKPGKAIKLLIYHTSRLHSGVPSRFSGSGSGTDFTLTISSLQPEDFATYYCQQGATLPYTFGPGTKVDIKR",,binds
"VH16 R94K/Y97F/VL43 V3Q/T7S/Y32F/P44I/N92A (antibody, human IgG1, name in Kabat numbering, V domains shown, Full-length human IgG1/kappa; substitutions in Kabat numbering) VH: QVQLVQSGGGVVQPGRSLRLSCAASGVSLPDYGVSWVRQAPGKGLEWVAVIWGSETTYYNSALKSRFTISRDNSKNTLYLQMNSLRAEDTAVYYCAKHYFYGGSYAMDYWGQGTLVTVSS VL: DIQMTQSPSSLSASVGDRVTITCRASQDISKFLNWYQQKPGKAIKLLIYHTSRLHSGVPSRFSGSGSGTDFTLTISSLQPEDFATYYCQQGATLPYTFGPGTKVDIKR",,binds
"VH16 R94K/VL43 V3Q/T7S/Y32F/N92A (antibody, human IgG1, V domains shown, Full-length human IgG1/kappa; substitutions in Kabat numbering) VH: QVQLVQSGGGVVQPGRSLRLSCAASGVSLPDYGVSWVRQAPGKGLEWVAVIWGSETTYYNSALKSRFTISRDNSKNTLYLQMNSLRAEDTAVYYCAKHYYYGGSYAMDYWGQGTLVTVSS VL: DIQMTQSPSSLSASVGDRVTITCRASQDISKFLNWYQQKPGKAPKLLIYHTSRLHSGVPSRFSGSGSGTDFTLTISSLQPEDFATYYCQQGATLPYTFGPGTKVDIKR",,binds
